Among the data in PMC4126377 are response (relative intensity) values, retold here.

The target of the assay is α- and β-tropomyosin. Kind of assay: GST pull-down. As to conditions: all curves start at 1 at 7.5 µg, read off a plot.

As for “GST-nebulin super repeat 18 (S18), wild type (from UniProt P20929-3) p.Ser6366Ile”, the response (relative intensity) came to 1.08 (sub-panel NEB ex122 (super repeat 18), curve 122m, 15 µg α- and β-tropomyosin, parent: est. 1.07); 1.19 (sub-panel NEB ex122 (super repeat 18), curve 122m, 30 µg α- and β-tropomyosin, parent: est. 1.18); 1.2 (sub-panel NEB ex122 (super repeat 18), curve 122m, 60 µg α- and β-tropomyosin, parent: est. 1.18).

In the case of “GST-nebulin super repeat 9 (S9), wild type (from UniProt P20929-3) p.Glu2431Lys”, the response (relative intensity) came to 1.27 (sub-panel NEB ex54 (super repeat 9), curve 54m, 15 µg α- and β-tropomyosin, parent: est. 1.25); 1.36 (sub-panel NEB ex54 (super repeat 9), curve 54m, 30 µg α- and β-tropomyosin, parent: est. 1.30); 1.37 (sub-panel NEB ex54 (super repeat 9), curve 54m, 60 µg α- and β-tropomyosin, parent: est. 1.30).

“GST-nebulin super repeat 22 (S22), wild type (from UniProt P20929-3) p.Thr7382Pro”: the response (relative intensity) stood at 1.12 (sub-panel NEB ex151 (super repeat 22), curve 151m, 15 µg α- and β-tropomyosin, parent: est. 1.28); 1.17 (sub-panel NEB ex151 (super repeat 22), curve 151m, 30 µg α- and β-tropomyosin, parent: est. 1.33); 1.18 (sub-panel NEB ex151 (super repeat 22), curve 151m, 60 µg α- and β-tropomyosin, parent: est. 1.34).
